# Test results reported in the supplement of paper PMC9112550, “Optimization of the antimicrobial peptide Bac7 by deep mutational scanning” (BMC Biology, 2022).
# Tested on: Escherichia coli TOP10
# Assay: shrunken log2 fold change of peptide-encoding DNA abundance (4.5 h post-induction vs induction); higher = less antimicrobial activity (less host growth inhibition)
# Conditions: time post-induction: 4.5 h; library: site-saturation at positions 5, 18, 19, 20
# 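Further: peptides expressed intracellularly from a pBAD plasmid library in pooled LB shake-flask culture, induced with 0.3% L-arabinose, DNA abundance read by NGS, three biological replicates, DESeq2 with apeglm shrinkage.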
row,Sequence,shrunken log2 fold change
1,RRIRERPPRLPRPRPRPIEAPRP,-0.0164
2,RRIRIRPPRLPRPRPRPWHGPRP,-0.0996
3,RRIRERPPRLPRPRPRPNCKPRP,-0.832
4,RRIRDRPPRLPRPRPRPIGCPRP,0.242
5,RRIRVRPPRLPRPRPRPITSPRP,-0.21
6,RRIRHRPPRLPRPRPRPALRPRP,0.269
7,RRIRLRPPRLPRPRPRPGAVPRP,0.375
8,RRIRLRPPRLPRPRPRPNYHPRP,-0.536
9,RRIRIRPPRLPRPRPRPWYYPRP,-0.00149
10,RRIRQRPPRLPRPRPRPKPAPRP,0.357
11,RRIRGRPPRLPRPRPRPDVDPRP,1.82
12,RRIRNRPPRLPRPRPRPWPLPRP,-0.0801
13,RRIRKRPPRLPRPRPRPVARPRP,0.397
14,RRIRSRPPRLPRPRPRPVQKPRP,0.178
15,RRIRTRPPRLPRPRPRPSGDPRP,-0.221
16,RRIRTRPPRLPRPRPRPPYCPRP,-0.112
17,RRIRTRPPRLPRPRPRPVSIPRP,-0.082
18,RRIRERPPRLPRPRPRPLIDPRP,-0.352
19,RRIRCRPPRLPRPRPRPPKRPRP,0.797
20,RRIRMRPPRLPRPRPRPRQSPRP,0.982
21,RRIRDRPPRLPRPRPRPHHLPRP,-0.0476
22,RRIRIRPPRLPRPRPRPDLGPRP,-0.0274

row,Sequence,shrunken log2 fold change
1,RRIRKRPPRLPRPRPRPVKWPRP,0.122
2,RRIRHRPPRLPRPRPRPGIQPRP,-0.277
3,RRIRIRPPRLPRPRPRPPLHPRP,0.0232
4,RRIRRRPPRLPRPRPRPAQWPRP,0.912
5,RRIRHRPPRLPRPRPRPLYGPRP,-0.214
6,RRIRERPPRLPRPRPRPSHGPRP,-0.263
7,RRIRGRPPRLPRPRPRPKECPRP,0.0235
8,RRIRQRPPRLPRPRPRPFCAPRP,0.184
9,RRIRTRPPRLPRPRPRPTLYPRP,-0.102
10,RRIRRRPPRLPRPRPRPNVNPRP,-0.0627
11,RRIRGRPPRLPRPRPRPWAHPRP,0.0122
12,RRIRSRPPRLPRPRPRPCEPPRP,-1.02
13,RRIRTRPPRLPRPRPRPDNPPRP,-0.371
14,RRIRCRPPRLPRPRPRPCCMPRP,-0.392
15,RRIRRRPPRLPRPRPRPFSPPRP,-0.173
16,RRIRHRPPRLPRPRPRPCICPRP,-0.347
17,RRIRHRPPRLPRPRPRPQWPPRP,0.112
18,RRIRDRPPRLPRPRPRPFDWPRP,0.374
19,RRIRDRPPRLPRPRPRPRDCPRP,0.0952
20,RRIRVRPPRLPRPRPRPTQPPRP,-0.0625
21,RRIRERPPRLPRPRPRPDIEPRP,-0.0223
22,RRIRYRPPRLPRPRPRPQYIPRP,0.0111

row,Sequence,shrunken log2 fold change
1,RRIRWRPPRLPRPRPRPDIYPRP,-0.0594
2,RRIRQRPPRLPRPRPRPWASPRP,-0.017
3,RRIRVRPPRLPRPRPRPVHGPRP,-0.0285
4,RRIRVRPPRLPRPRPRPTGTPRP,0.699
5,RRIRRRPPRLPRPRPRPHEWPRP,-0.00636
6,RRIRVRPPRLPRPRPRPMYFPRP,-0.569
7,RRIRPRPPRLPRPRPRPYRPPRP,-0.257
8,RRIRDRPPRLPRPRPRPSTHPRP,-0.247
9,RRIRCRPPRLPRPRPRPIAPPRP,0.509
10,RRIRKRPPRLPRPRPRPRKYPRP,-0.211
11,RRIRMRPPRLPRPRPRPQRFPRP,-0.0093
12,RRIRWRPPRLPRPRPRPGEAPRP,0.799
13,RRIRLRPPRLPRPRPRPNITPRP,-0.327
14,RRIRQRPPRLPRPRPRPQCTPRP,-0.0165
15,RRIRSRPPRLPRPRPRPIQPPRP,0.117
16,RRIRARPPRLPRPRPRPQPCPRP,0.276
17,RRIRERPPRLPRPRPRPPMNPRP,-0.82
18,RRIRNRPPRLPRPRPRPEFSPRP,0.0268
19,RRIRFRPPRLPRPRPRPPVAPRP,0.987
20,RRIRLRPPRLPRPRPRPQDKPRP,-0.431
21,RRIRGRPPRLPRPRPRPNVQPRP,1.08
22,RRIRCRPPRLPRPRPRPKWEPRP,0.173

row,Sequence,shrunken log2 fold change
1,RRIRVRPPRLPRPRPRPEEVPRP,0.0207
2,RRIRERPPRLPRPRPRPNIKPRP,-0.788
3,RRIRQRPPRLPRPRPRPIYEPRP,-0.0255
4,RRIRARPPRLPRPRPRPESEPRP,3.51
5,RRIRVRPPRLPRPRPRPNMNPRP,-0.745
6,RRIRVRPPRLPRPRPRPDGQPRP,-0.0901
7,RRIRPRPPRLPRPRPRPCDMPRP,-0.217
8,RRIRLRPPRLPRPRPRPYIDPRP,-0.00113
9,RRIRVRPPRLPRPRPRPNALPRP,-0.379
10,RRIRPRPPRLPRPRPRPPVYPRP,0.162
11,RRIRGRPPRLPRPRPRPYNPPRP,-0.504
12,RRIRDRPPRLPRPRPRPNVYPRP,0.0576
13,RRIRLRPPRLPRPRPRPGMYPRP,-0.115
14,RRIRCRPPRLPRPRPRPNGTPRP,-0.0476
15,RRIRARPPRLPRPRPRPITQPRP,-0.0161
16,RRIRSRPPRLPRPRPRPFFQPRP,-0.105
17,RRIRIRPPRLPRPRPRPPAMPRP,1.68
18,RRIRMRPPRLPRPRPRPFKYPRP,-0.164
19,RRIRKRPPRLPRPRPRPKNNPRP,-0.047
20,RRIRCRPPRLPRPRPRPVSHPRP,-0.0571
21,RRIRNRPPRLPRPRPRPRKEPRP,-0.0425
22,RRIRPRPPRLPRPRPRPKCTPRP,-0.0758

row,Sequence,shrunken log2 fold change
1,RRIRGRPPRLPRPRPRPDNRPRP,-0.0893
2,RRIRKRPPRLPRPRPRPYRNPRP,0.00408
3,RRIRTRPPRLPRPRPRPEYWPRP,-0.00483
4,RRIRFRPPRLPRPRPRPQGNPRP,0.311
5,RRIRPRPPRLPRPRPRPATVPRP,-0.0314
6,RRIRHRPPRLPRPRPRPQWSPRP,-0.0854
7,RRIRYRPPRLPRPRPRPNCTPRP,-0.126
8,RRIRHRPPRLPRPRPRPMQIPRP,0.093
9,RRIRERPPRLPRPRPRPGTWPRP,-0.0304
10,RRIRDRPPRLPRPRPRPKPSPRP,0.503
11,RRIRVRPPRLPRPRPRPGQGPRP,0.065
12,RRIRTRPPRLPRPRPRPGSPPRP,0.0989
13,RRIRYRPPRLPRPRPRPPQRPRP,0.00441
14,RRIRTRPPRLPRPRPRPPEHPRP,0.0826
15,RRIRYRPPRLPRPRPRPEGCPRP,0.204
16,RRIRVRPPRLPRPRPRPPARPRP,0.76
17,RRIRIRPPRLPRPRPRPHILPRP,-1
18,RRIRIRPPRLPRPRPRPNDGPRP,-0.483
19,RRIRCRPPRLPRPRPRPYVDPRP,-0.232
20,RRIRERPPRLPRPRPRPKWQPRP,-0.0355
21,RRIRGRPPRLPRPRPRPFEAPRP,0.727
